Key:
[1] = target: T1, recombinant human CD8ab (human, UniProt P01732 22-182; P10966 22-170); assay: SPR (Biacore), soluble antigen, mean ± SD of three experiments
T1 construct: Soluble form of the CD8 alpha/beta heterodimer; construct not described
Protocol: (§1) KD were calculated as the ratio of koff/kₒₙ from a non-linear fit of the data. Values are presented as mean±standard deviation (SD) of three experiments.

[2] = target: T2, recombinant cynomolgus monkey CD8ab (cynomolgus monkey); assay: as above
T2 construct: Soluble form of the CD8 alpha/beta heterodimer; construct not described
Protocol: as §1

[3] = target: T3, soluble recombinant human GPC3 protein (human, UniProt P51654 25-559, biotinylated in the biolayer interferometry assay); assay: as above
T3 construct: also called GPC3 human
Protocol: as §1

[4] = target: recombinant cynomolgus monkey GPC3 (cynomolgus monkey, UniProt A0A2K5VK50 24-558); assay: as above
Protocol: as §1

[5] = target: T4, GPC3 on human hepatoma cells (Hep3B, HepG2) (human, UniProt P51654 25-554); assay: flow cytometry on Hep3B cells, goat anti-human-IgG-APC; Hep3B cells
T4 construct: whole, on cells; also called Glypican-3
Protocol: (§2) Cell bindings were measured by flow cytometry.
as §2

[6] = target: T4, GPC3 on human hepatoma cells (Hep3B, …); assay: flow cytometry on HepG2 cells, goat anti-human-IgG-APC; HepG2 cells
Protocol: as §2, §2

[7] = target: T5, LRRC15 on LRRC15pos tumour cell lines (Saos-2 WT, RPMI-7951 WT) (UniProt Q8TF66 22-581, limits assumed); assay: Flow cytometry on Saos-2 WT cells (LRRC15pos), detected with anti-human Fc Alexa Fluor 647 (MFI)
T5 construct: whole, on cells; also called leucine rich repeat containing 15
T5 sequence (looked up): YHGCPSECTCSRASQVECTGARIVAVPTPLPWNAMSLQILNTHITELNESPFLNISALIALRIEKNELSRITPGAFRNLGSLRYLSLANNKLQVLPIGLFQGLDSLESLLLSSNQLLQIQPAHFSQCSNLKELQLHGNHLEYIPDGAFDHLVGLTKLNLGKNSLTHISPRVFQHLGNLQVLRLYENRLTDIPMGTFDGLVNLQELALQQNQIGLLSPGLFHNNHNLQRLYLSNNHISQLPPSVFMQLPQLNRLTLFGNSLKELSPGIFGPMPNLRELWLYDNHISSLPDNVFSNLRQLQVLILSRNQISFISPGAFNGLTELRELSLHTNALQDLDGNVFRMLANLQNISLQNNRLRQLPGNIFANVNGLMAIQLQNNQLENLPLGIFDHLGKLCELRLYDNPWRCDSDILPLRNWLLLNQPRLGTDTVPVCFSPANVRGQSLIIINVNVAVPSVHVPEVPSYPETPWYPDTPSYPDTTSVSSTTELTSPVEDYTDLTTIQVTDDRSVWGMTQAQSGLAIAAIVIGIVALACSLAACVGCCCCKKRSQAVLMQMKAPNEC

[8] = target: T5, LRRC15 on LRRC15pos tumour cell lines …; assay: Flow cytometry on RPMI-7951 WT cells (LRRC15pos), detected with anti-human Fc Alexa Fluor 647 (MFI)

T3 sequence (P51654 25-559 limits assumed): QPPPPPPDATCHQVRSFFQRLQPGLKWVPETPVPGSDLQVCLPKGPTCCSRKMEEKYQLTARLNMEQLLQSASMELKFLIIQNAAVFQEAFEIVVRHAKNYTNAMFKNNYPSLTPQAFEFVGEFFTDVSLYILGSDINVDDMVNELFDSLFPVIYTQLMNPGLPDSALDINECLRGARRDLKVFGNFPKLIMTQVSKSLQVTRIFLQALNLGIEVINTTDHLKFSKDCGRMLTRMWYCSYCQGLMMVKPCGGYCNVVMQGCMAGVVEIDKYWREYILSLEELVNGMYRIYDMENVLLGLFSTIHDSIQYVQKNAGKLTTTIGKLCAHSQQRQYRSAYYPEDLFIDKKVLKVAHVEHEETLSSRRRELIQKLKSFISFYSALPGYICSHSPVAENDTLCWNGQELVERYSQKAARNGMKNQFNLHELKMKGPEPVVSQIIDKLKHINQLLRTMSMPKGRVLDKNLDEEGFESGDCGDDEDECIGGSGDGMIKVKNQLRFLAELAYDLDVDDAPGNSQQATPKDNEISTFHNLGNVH
T1 sequence (P01732 22-182, chain 1 of 2): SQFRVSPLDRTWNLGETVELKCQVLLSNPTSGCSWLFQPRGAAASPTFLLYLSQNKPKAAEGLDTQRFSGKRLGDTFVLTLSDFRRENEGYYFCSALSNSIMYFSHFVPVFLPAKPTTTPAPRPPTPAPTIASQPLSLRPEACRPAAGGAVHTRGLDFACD
T1 sequence (P10966 22-170, chain 2 of 2): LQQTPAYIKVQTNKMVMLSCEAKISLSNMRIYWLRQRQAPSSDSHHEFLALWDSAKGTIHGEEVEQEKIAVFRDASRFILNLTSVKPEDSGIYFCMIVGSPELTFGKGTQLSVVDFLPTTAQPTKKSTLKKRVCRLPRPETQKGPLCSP
T4 sequence (P51654 25-554 limits assumed): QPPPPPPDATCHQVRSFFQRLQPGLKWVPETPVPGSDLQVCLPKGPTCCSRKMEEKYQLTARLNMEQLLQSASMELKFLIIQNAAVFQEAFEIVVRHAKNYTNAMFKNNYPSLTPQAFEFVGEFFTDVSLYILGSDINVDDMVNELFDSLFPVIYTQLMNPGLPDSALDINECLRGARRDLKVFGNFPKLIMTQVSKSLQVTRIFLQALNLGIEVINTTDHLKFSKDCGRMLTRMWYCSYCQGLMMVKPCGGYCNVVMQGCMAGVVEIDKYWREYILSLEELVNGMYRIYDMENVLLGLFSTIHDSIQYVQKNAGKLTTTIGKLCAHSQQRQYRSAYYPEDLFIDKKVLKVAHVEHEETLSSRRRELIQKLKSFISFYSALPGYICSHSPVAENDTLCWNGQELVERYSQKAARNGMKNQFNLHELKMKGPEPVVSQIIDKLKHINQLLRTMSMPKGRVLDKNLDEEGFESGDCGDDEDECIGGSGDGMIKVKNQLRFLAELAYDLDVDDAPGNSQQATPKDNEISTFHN

B1: LM1653 (other)
light: DVVMTQSPLSLPVTPGEPASISCRSSQSLVHSNRNTYLHWYLQKPGQSPQLLIYKVSNRFSGVPDRFSGSGSGTDFTLKISRVEAEDVGVYYCSQNTHVPPTFGQGTKLEIKRTVAAPSVFIFPPSDEQLKSGTASVVCLLNNFYPREAKVQWKVDNALQSGNSQESVTEQDSKDSTYSLSSTLTLSKADYEKHKVYACEVTHQGLSSPVTKSFNRGEC
heavy 1: QVQLVQSGAEVKKPGASVKVSCKASGYTFTDYEMHWVRQAPGQGLEWMGALDPKTGDTAYSQKFKGRVTLTADKSTSTAYMELSSLTSEDTAVYYCTRFYSYTYWGQGTLVTVSSASTKGPSVFPLAPSSKSTSGGTAALGCLVKDYFPEPVTVSWNSGALTSGVHTFPAVLQSSGLYSLSSVVTVPSSSLGTQTYICNVNHKPSNTKVDKRVEPKSCDKTGGSEVQLVESGGGLVQPGGSLRLSCVASGDVHKINFLGWYRQAPGKEREKVAHISIGDQTDYADSAKGRFTISRDESKNMVYLQMNSLKPEDTAVYFCRAFSRIYPYDYWGQGTLVTVSSGGGGSTHTCPPCPAPPVAGPSVFLFPPKPKDTLMISRTPEVTCVVVDVKHEDPEVKFNWYVDGVEVHNAKTKPREEQYNSTYRVVSVLTVLHQDWLNGKEYKCKVSNKALPAPIEKTISKAKGQPREPQVCTLPPSREEMTKNQVSLSCAVKGFYPSDIAVEWESNGQPENNYKTTPPVLDSDGSFFLVSKLTVDKSRWQQGNVFSCSVMHEALHNHYTQKSLSLSPGK
heavy 2: QVQLVQSGAEVKKPGASVKVSCKASGYTFTDYEMHWVRQAPGQGLEWMGALDPKTGDTAYSQKFKGRVTLTADKSTSTAYMELSSLTSEDTAVYYCTRFYSYTYWGQGTLVTVSSASTKGPSVFPLAPSSKSTSGGTAALGCLVKDYFPEPVTVSWNSGALTSGVHTFPAVLQSSGLYSLSSVVTVPSSSLGTQTYICNVNHKPSNTKVDKRVEPKSCDKTGGSEVQLLESGGGLVQPGGSLRLSCAASGFTFDDYAIGWFRQAPGKEREGVSCIRVSDGSTYYADSVKGRFTISRDNSKNTLYLQMNSLRAEDTAVYYCAAGSLYTCVQSIVWPARPYYDMDYWGQGTLVTVSSGGGGSTHTCPPCPAPPVAGPSVFLFPPKPKDTLMISRTPEVTCVVVDVKHEDPEVKFNWYVDGVEVHNAKTKPREEQYNSTYRVVSVLTVLHQDWLNGKEYKCKVSNKALPAPIEKTISKAKGQPREPQVYTLPPCREEMTKNQVSLWCLVKGFYPSDIAVEWESNGQPENNYKTTPPVLDSDGSFFLYSKLTVDKSRWQQGNVFSCSVMHEALHNHYTQKSLSLSPGK
notes: also called GPC3 TITAN; LM1653 (GPC3)
- Kd [1]: 82.7 nM
- koff [1]: 0.028 s⁻¹
- kon [1]: 340000 M⁻¹ s⁻¹
- Kd [2]: 62.4 nM
- koff [2]: 0.0329 s⁻¹
- kon [2]: 527000 M⁻¹ s⁻¹
- Kd [3]: 0.67 nM
- koff [3]: 0.000226 s⁻¹
- kon [3]: 341000 M⁻¹ s⁻¹
- Kd [4]: 0.82 nM
- koff [4]: 0.000267 s⁻¹
- kon [4]: 326000 M⁻¹ s⁻¹
- EC50 [5]: 8 nM
- EC50 [6]: 2 nM

B2: LRC150016 (other)
light: DIQMTQSPSSLSASVGDRVTITCRASQDISNYLNWYQQKPGGAVKFLIYYTSRLHSGVPSRFSGSGSGTDYTLTISSLQPEDFATYFCQQGEALPWTFGGGTKVEIKRTVAAPSVFIFPPSDEQLKSGTASVVCLLNNFYPREAKVQWKVDNALQSGNSQESVTEQDSKDSTYSLSSTLTLSKADYEKHKVYACEVTHQGLSSPVTKSFNRGEC
heavy 1: EVQLVQSGAEVKKPGASVKVSCKASGYKFSSYWIEWVKQAPGQGLEWIGEILPGSDTTNYNEKFKDRATFTSDTSINTAYMELSRLRSDDTAVYYCARDRGNYRAWFGYWGQGTLVTVSSASTKGPSVFPLAPSSKSTSGGTAALGCLVKDYFPEPVTVSWNSGALTSGVHTFPAVLQSSGLYSLSSVVTVPSSSLGTQTYICNVNHKPSNTKVDKRVEPKSCDKTGGSEVQLVESGGGLVQPGGSLRLSCVASGDVHKINFLGWYRQAPGKEREKVAHISIGDQTDYADSAKGRFTISRDESKNMVYLQMNSLKPEDTAVYFCRAFSRIYPYDYWGQGTLVTVSSGGGGSTHTCPPCPAPPVAGPSVFLFPPKPKDTLMISRTPEVTCVVVDVKHEDPEVKFNWYVDGVEVHNAKTKPREEQYNSTYRVVSVLTVLHQDWLNGKEYKCKVSNKALPAPIEKTISKAKGQPREPQVCTLPPSREEMTKNQVSLSCAVKGFYPSDIAVEWESNGQPENNYKTTPPVLDSDGSFFLVSKLTVDKSRWQQGNVFSCSVMHEALHNRFTQKSLSLSPGK
heavy 2: EVQLVQSGAEVKKPGASVKVSCKASGYKFSSYWIEWVKQAPGQGLEWIGEILPGSDTTNYNEKFKDRATFTSDTSINTAYMELSRLRSDDTAVYYCARDRGNYRAWFGYWGQGTLVTVSSASTKGPSVFPLAPSSKSTSGGTAALGCLVKDYFPEPVTVSWNSGALTSGVHTFPAVLQSSGLYSLSSVVTVPSSSLGTQTYICNVNHKPSNTKVDKRVEPKSCDKTGGSEVQLLESGGGLVQPGGSLRLSCAASGFTFDDYAIGWFRQAPGKEREGVSCIRVSDGSTYYADSVKGRFTISRDNSKNTLYLQMNSLRAEDTAVYYCAAGSLYTCVQSIVWPARPYYDMDYWGQGTLVTVSSGGGGSTHTCPPCPAPPVAGPSVFLFPPKPKDTLMISRTPEVTCVVVDVKHEDPEVKFNWYVDGVEVHNAKTKPREEQYNSTYRVVSVLTVLHQDWLNGKEYKCKVSNKALPAPIEKTISKAKGQPREPQVYTLPPCREEMTKNQVSLWCLVKGFYPSDIAVEWESNGQPENNYKTTPPVLDSDGSFFLYSKLTVDKSRWQQGNVFSCSVMHEALHNHYTQKSLSLSPGK
notes: also called LRC150016 (LRRC15); LRC150016 engager
- EC50 (read off the curve) [7]: ~2 nM
- EC50 (read off the curve) [8]: ~3 nM
